What was measured:
[1] = target: T1, Human PD-L1 ECD protein (mouse IgG2a Fc tag) (human, UniProt Q9NZQ7 19-238); assay: bridging ELISA, coated CD40 ECD-His, soluble PD-L1 ECD-mFc
T1 construct: extracellular domain; also called recombinant human PD-L1; not shown: mouse IgG2a Fc tag

[2] = target: T2, Ly090 (human CD40 ECD protein with His tag) (human, UniProt P25942 21-193); assay: as above
T2 construct: extracellular domain; also called human CD40 ECD protein (His tag); recombinant human CD40; not shown: His tag
T2 sequence (P25942 21-193): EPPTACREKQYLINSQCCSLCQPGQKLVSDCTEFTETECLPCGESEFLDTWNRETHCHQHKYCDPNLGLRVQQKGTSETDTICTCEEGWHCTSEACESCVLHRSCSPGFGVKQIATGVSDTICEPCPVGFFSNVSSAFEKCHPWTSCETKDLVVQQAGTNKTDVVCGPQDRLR

[3] = target: T3, human PD-L1 expressed on CHO cells (human, UniProt Q9NZQ7 19-290); assay: FACS, CHO cells
T3 construct: whole, on cells; also used for human PD-L1 on Raji cells in the reporter assay; also called cell surface PD-L1; Raji-PD-L1 cells
T3 sequence (Q9NZQ7 19-290): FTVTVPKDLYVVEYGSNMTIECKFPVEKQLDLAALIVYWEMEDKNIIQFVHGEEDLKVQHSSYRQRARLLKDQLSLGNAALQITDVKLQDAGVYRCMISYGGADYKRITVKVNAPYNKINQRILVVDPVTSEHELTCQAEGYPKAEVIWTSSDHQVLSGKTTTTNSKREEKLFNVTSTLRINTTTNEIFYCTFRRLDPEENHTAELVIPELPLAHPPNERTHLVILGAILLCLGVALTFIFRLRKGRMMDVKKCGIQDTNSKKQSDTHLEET

[4] = target: T4, human CD40 expressed on CHO cells (human, UniProt P25942 21-277); assay: FACS, CHO cells
T4 construct: whole, on cells; also used for the reporter cells over-expressing human CD40; also called cellular CD40; CHO-CD40 cells
T4 sequence (P25942 21-277): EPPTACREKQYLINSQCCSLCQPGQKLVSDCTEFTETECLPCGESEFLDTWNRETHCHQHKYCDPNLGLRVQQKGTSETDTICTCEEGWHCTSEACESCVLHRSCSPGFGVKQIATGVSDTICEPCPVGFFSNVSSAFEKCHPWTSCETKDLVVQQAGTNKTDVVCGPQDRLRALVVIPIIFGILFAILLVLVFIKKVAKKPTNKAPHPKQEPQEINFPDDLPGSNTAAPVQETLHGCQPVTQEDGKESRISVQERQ

Measured: binding result

T1 sequence (Q9NZQ7 19-238): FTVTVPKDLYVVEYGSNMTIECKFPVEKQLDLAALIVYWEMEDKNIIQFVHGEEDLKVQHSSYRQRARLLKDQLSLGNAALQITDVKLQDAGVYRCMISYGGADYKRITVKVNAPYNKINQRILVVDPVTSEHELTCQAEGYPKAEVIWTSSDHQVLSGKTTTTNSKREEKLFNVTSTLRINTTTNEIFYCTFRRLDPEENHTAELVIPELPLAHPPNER

B1: Ly349 (bispecific antibody, human IgG1, kappa)
heavy: QVQLVQSGAEVKKPGASVKVSCKASGYTFTDFWMSWVRQAPGQGLEWMGQIYPNTGTTHSNEKFKGRVTMTRDTSTSTVYMELSSLRSEDTAVYYCARSYHISTTPNWFAYWGQGTLVTVSSASTKGPSVFPLAPSSKSTSGGTAALGCLVKDYFPEPVTVSWNSGALTSGVHTFPAVLQSSGLYSLSSVVTVPSSSLGTQTYICNVNHKPSNTKVDKKVEPKSCDKTHTCPPCPAPELLGPSVFLFPPKPKDTLMISRTPEVTCVVVDVSHEDPEVKFNWYVDGVEVHNAKTKPREEQYNSTYRVVSVLTVLHQDWLNGKEYKCKVSNKALPAPIEKTISKAKGQPREPQVYTLPPSREEMTKNQVSLTCLVKGFYPSDIAVEWESNGQPENNYKTTPPVLDSDGSFFLYSKLTVDKSRWQQGNVFSCSVMHEALHNHYTQKSLSLSPG
light: DIQMTQSPSSLSASVGDRVTITCKASQNVYKKLEWYQQKPGKVPKVLIYHTNILQTGVPSRFSGSGSGTDYTLTISSLQPEDVATYYCYQWNSGPTFGGGTKVEIKRTVAAPSVFIFPPSDEQLKSGTASVVCLLNNFYPREAKVQWKVDNALQSGNSQESVTEQDSKDSTYSLSSTLTLSKADYEKHKVYACEVTHQGLSSPVTKSFNRGECGGGGSGGGGSGGGGSGGGGSDIQMTQSPSSLSASVGDRVTITCKASQNIYIYLNWYQQKPGKAPKLLIYNTNNLQTGVPSRFSGSGSGTDFTLTISSLQPEDFATYYCLQHSSRRTFGGGTKVEIKGGGGSGGGGSGGGGSGGGGSQVQLVESGGGLVQPGGSLKLSCATSGFNFNDYFMNWVRQASGKGLEWVGQIRNKNYNYATYYTESLEGRVTISRDDSKNTAYLQMNSLKTEDTAVYYCTSYYYDGFADYFDYWGQGTTVTVSS
notes: Ly076 HC (IgG1 mutated Fc) + Ly076 LC-TM740 scFv VL-VH
binds: all assays above

B2: Ly339 (bispecific antibody, human IgG1, kappa)
heavy: QVQLVQSGAEVKKPGASVKVSCKASGYTFTDFWMSWVRQAPGQGLEWMGQIYPNTGTTHSNEKFKGRVTMTRDTSTSTVYMELSSLRSEDTAVYYCARSYHISTTPNWFAYWGQGTLVTVSSASTKGPSVFPLAPSSKSTSGGTAALGCLVKDYFPEPVTVSWNSGALTSGVHTFPAVLQSSGLYSLSSVVTVPSSSLGTQTYICNVNHKPSNTKVDKKVEPKSCDKTHTCPPCPAPELLGPSVFLFPPKPKDTLMISRTPEVTCVVVDVSHEDPEVKFNWYVDGVEVHNAKTKPREEQYNSTYRVVSVLTVLHQDWLNGKEYKCKVSNKALPAPIEKTISKAKGQPREPQVYTLPPSREEMTKNQVSLTCLVKGFYPSDIAVEWESNGQPENNYKTTPPVLDSDGSFFLYSKLTVDKSRWQQGNVFSCSVMHEALHNHYTQKSLSLSPG
light: DIQMTQSPSSLSASVGDRVTITCKASQNVYKKLEWYQQKPGKVPKVLIYHTNILQTGVPSRFSGSGSGTDYTLTISSLQPEDVATYYCYQWNSGPTFGGGTKVEIKRTVAAPSVFIFPPSDEQLKSGTASVVCLLNNFYPREAKVQWKVDNALQSGNSQESVTEQDSKDSTYSLSSTLTLSKADYEKHKVYACEVTHQGLSSPVTKSFNRGECGGGGSGGGGSGGGGSGGGGSQVQLVESGGGLVQPGGSLKLSCATSGFNFNDYFMNWVRQASGKGLEWVGQIRNKNYNYATYYTESLEGRVTISRDDSKNTAYLQMNSLKTEDTAVYYCTSYYYDGFADYFDYWGQGTTVTVSSGGGGSGGGGSGGGGSGGGGSDIQMTQSPSSLSASVGDRVTITCKASQNIYIYLNWYQQKPGKAPKLLIYNTNNLQTGVPSRFSGSGSGTDFTLTISSLQPEDFATYYCLQHSSRRTFGGGTKVEIK
notes: Ly076 HC (IgG1 mutated Fc) + Ly076 LC-TM740 scFv VH-VL
binds: all assays above

B3: Ly303 (bispecific antibody, human IgG1, kappa)
heavy: QVQLVQSGAEVKKPGASVKVSCKASGYTFTDFWMSWVRQAPGQGLEWMGQIYPNTGTTHSNEKFKGRVTMTRDTSTSTVYMELSSLRSEDTAVYYCARSYHISTTPNWFAYWGQGTLVTVSSASTKGPSVFPLAPSSKSTSGGTAALGCLVKDYFPEPVTVSWNSGALTSGVHTFPAVLQSSGLYSLSSVVTVPSSSLGTQTYICNVNHKPSNTKVDKKVEPKSCDKTHTCPPCPAPELLGPSVFLFPPKPKDTLMISRTPEVTCVVVDVSHEDPEVKFNWYVDGVEVHNAKTKPREEQYNSTYRVVSVLTVLHQDWLNGKEYKCKVSNKALPAPIEKTISKAKGQPREPQVYTLPPSREEMTKNQVSLTCLVKGFYPSDIAVEWESNGQPENNYKTTPPVLDSDGSFFLYSKLTVDKSRWQQGNVFSCSVMHEALHNHYTQKSLSLSPGGGGGSGGGGSGGGGSGGGGSDIQMTQSPSSLSASVGDRVTITCLASEDISNDLAWYQQKPGKAPKLLIYFVDRLLDGVPSRFSGSGSGTDFTLTISSLQPEDFATYYCQQSYKYPPTFGQGTKLEIKGGGGSGGGGSGGGGSGGGGSEVQLVESGGGLVQPGGSLRLSCAASGFTFTNYGLHWVRQAPGKGLEWVSSISPSGGVTYYRDSVKGRFTISRDNSKNTLYLQMNSLRAEDTAVYYCAKPFLGWGGANWIAHWGQGTLVTVSS
light: DIQMTQSPSSLSASVGDRVTITCKASQNVYKKLEWYQQKPGKVPKVLIYHTNILQTGVPSRFSGSGSGTDYTLTISSLQPEDVATYYCYQWNSGPTFGGGTKVEIKRTVAAPSVFIFPPSDEQLKSGTASVVCLLNNFYPREAKVQWKVDNALQSGNSQESVTEQDSKDSTYSLSSTLTLSKADYEKHKVYACEVTHQGLSSPVTKSFNRGEC
notes: Ly076 HC (IgG1 mutated Fc)-TM559 scFv VL-VH + Ly076 LC
binds: all assays above

B4: Ly340 (bispecific antibody, human IgG1, kappa)
heavy: QVQLVQSGAEVKKPGASVKVSCKASGYTFTDFWMSWVRQAPGQGLEWMGQIYPNTGTTHSNEKFKGRVTMTRDTSTSTVYMELSSLRSEDTAVYYCARSYHISTTPNWFAYWGQGTLVTVSSASTKGPSVFPLAPSSKSTSGGTAALGCLVKDYFPEPVTVSWNSGALTSGVHTFPAVLQSSGLYSLSSVVTVPSSSLGTQTYICNVNHKPSNTKVDKKVEPKSCDKTHTCPPCPAPELLGPSVFLFPPKPKDTLMISRTPEVTCVVVDVSHEDPEVKFNWYVDGVEVHNAKTKPREEQYNSTYRVVSVLTVLHQDWLNGKEYKCKVSNKALPAPIEKTISKAKGQPREPQVYTLPPSREEMTKNQVSLTCLVKGFYPSDIAVEWESNGQPENNYKTTPPVLDSDGSFFLYSKLTVDKSRWQQGNVFSCSVMHEALHNHYTQKSLSLSPGGGGGSGGGGSGGGGSGGGGSEVQLVESGGGLVQPGGSLRLSCAASGFTFTNYGLHWVRQAPGKGLEWVSSISPSGGVTYYRDSVKGRFTISRDNSKNTLYLQMNSLRAEDTAVYYCAKPFLGWGGANWIAHWGQGTLVTVSSGGGGSGGGGSGGGGSGGGGSDIQMTQSPSSLSASVGDRVTITCLASEDISNDLAWYQQKPGKAPKLLIYFVDRLLDGVPSRFSGSGSGTDFTLTISSLQPEDFATYYCQQSYKYPPTFGQGTKLEIK
light: DIQMTQSPSSLSASVGDRVTITCKASQNVYKKLEWYQQKPGKVPKVLIYHTNILQTGVPSRFSGSGSGTDYTLTISSLQPEDVATYYCYQWNSGPTFGGGTKVEIKRTVAAPSVFIFPPSDEQLKSGTASVVCLLNNFYPREAKVQWKVDNALQSGNSQESVTEQDSKDSTYSLSSTLTLSKADYEKHKVYACEVTHQGLSSPVTKSFNRGEC
notes: Ly076 HC (IgG1 mutated Fc)-TM559 scFv VH-VL + Ly076 LC
binds: all assays above

B5: Ly350 (bispecific antibody, human IgG1, kappa)
heavy: QVQLVQSGAEVKKPGASVKVSCKASGYTFTDFWMSWVRQAPGQGLEWMGQIYPNTGTTHSNEKFKGRVTMTRDTSTSTVYMELSSLRSEDTAVYYCARSYHISTTPNWFAYWGQGTLVTVSSASTKGPSVFPLAPSSKSTSGGTAALGCLVKDYFPEPVTVSWNSGALTSGVHTFPAVLQSSGLYSLSSVVTVPSSSLGTQTYICNVNHKPSNTKVDKKVEPKSCDKTHTCPPCPAPELLGPSVFLFPPKPKDTLMISRTPEVTCVVVDVSHEDPEVKFNWYVDGVEVHNAKTKPREEQYNSTYRVVSVLTVLHQDWLNGKEYKCKVSNKALPAPIEKTISKAKGQPREPQVYTLPPSREEMTKNQVSLTCLVKGFYPSDIAVEWESNGQPENNYKTTPPVLDSDGSFFLYSKLTVDKSRWQQGNVFSCSVMHEALHNHYTQKSLSLSPG
light: DIQMTQSPSSLSASVGDRVTITCKASQNVYKKLEWYQQKPGKVPKVLIYHTNILQTGVPSRFSGSGSGTDYTLTISSLQPEDVATYYCYQWNSGPTFGGGTKVEIKRTVAAPSVFIFPPSDEQLKSGTASVVCLLNNFYPREAKVQWKVDNALQSGNSQESVTEQDSKDSTYSLSSTLTLSKADYEKHKVYACEVTHQGLSSPVTKSFNRGECGGGGSGGGGSGGGGSGGGGSDIQMTQSPSSLSASVGDRVTITCLASEDISNDLAWYQQKPGKAPKLLIYFVDRLLDGVPSRFSGSGSGTDFTLTISSLQPEDFATYYCQQSYKYPPTFGQGTKLEIKGGGGSGGGGSGGGGSGGGGSEVQLVESGGGLVQPGGSLRLSCAASGFTFTNYGLHWVRQAPGKGLEWVSSISPSGGVTYYRDSVKGRFTISRDNSKNTLYLQMNSLRAEDTAVYYCAKPFLGWGGANWIAHWGQGTLVTVSS
notes: Ly076 HC (IgG1 mutated Fc) + Ly076 LC-TM559 scFv VL-VH
binds: all assays above

— patent publication US20220372155A1 (LYVGEN BIOPHARMA, published 2022)
